Each block holds one substance with its values, some of them ahead of it.
How the values were obtained:
Assay in all cases: SEC
[1] = biological target: Δ17-ClpP (Escherichia coli)
[2] = biological target: Δ14-ClpP (Escherichia coli)
[3] = biological target: Δ6-ClpP (Escherichia coli)
[4] = biological target: Δ4-ClpP (Escherichia coli)
[5] = biological target: Δ10-ClpP (Escherichia coli)

Substance: Δ17-ClpP (domain or fragment)
stoichiometry N [1]: 14

Substance: Δ14-ClpP (domain or fragment)
stoichiometry N [2]: 14

Substance: Δ4-ClpP (domain or fragment)
stoichiometry N [4]: 14

More lines, now with the values ahead:

stoichiometry N [3]: 14
Substance: Δ6-ClpP (domain or fragment)

stoichiometry N [5]: 14
Substance: Δ10-ClpP (domain or fragment)

Source: PMC3433037
